From PMC4303762, “Identification of PLXDC1 and PLXDC2 as the transmembrane receptors for the multifunctional factor PEDF” (eLife, 2014)

Target: the molecule itself
Assay: cross-linking; membranes of HEK293 cells transfected with the receptor, in PBS; disulfide bond formation catalysed by 0.5 mM Cu (II) phenanthroline, 5 min; non-reducing and reducing SDS-PAGE, Western blot for the receptor

B1: PLXDC1 in membranes of transfected HEK293 cells (copper phenanthroline crosslinking) (receptor, human, UniProt Q8IUK5 19-500, looked up)
chain: LSPQPGAGHDEGPGSGWAAKGTVRGWNRRARESPGHVSEPDRTQLSQDLGGGTLAMDTLPDNRTRVVEDNHSYYVSRLYGPSEPHSRELWVDVAEANRSQVKIHTILSNTHRQASRVVLSFDFPFYGHPLRQITIATGGFIFMGDVIHRMLTATQYVAPLMANFNPGYSDNSTVVYFDNGTVFVVQWDHVYLQGWEDKGSFTFQAALHHDGRIVFAYKEIPMSVPEISSSQHPVKTGLSDAFMILNPSPDVPESRRRSIFEYHRIELDPSKVTSMSAVEFTPLPTCLQHRSCDACMSSDLTFNCSWCHVLQRCSSGFDRYRQEWMDYGCAQEAEGRMCEDFQDEDHDSASPDTSFSPYDGDLTTTSSSLFIDSLTTEDDTKLNPYAGGDGLQNNLSPKTKGTPVHLGTIVGIVLAVLLVAAIILAGIYINGHPTSNAALFFIERRPHHWPAMKFRSHPDHSTYAEVEPSGHEKEGFMEAEQC
notes: human PLXDC1 with its cytoplasmic tail ending in the conserved cysteine; Detected by a Western blot for the receptor; also called the receptor; source: HEK293, transfected, in membrane preparation
stoichiometry N: 2
